Experimental data from US20260055143A1 (published 2026).
Where two headings read alike, the source gives them in different places. Where no end group is shown, it is not given here. [ ]: non-standard residue; d: D form. The star is where a group is joined. Biotin = O=C1N[C@H]2[C@H](CS[C@H]2CCCCC(=O)*)N1; pY = N[C@@H](Cc1ccc(OP(=O)(O)O)cc1)C(=O)O; Ahx = NCCCCCC(=O)O

B1: Src^sFes, Src SH2 domain with the sFes superbinder motif grafted (designed binder)
chain: MKIEEHHHHHHSSGKLGLNDIFEAQKIEWHESSGEDLYFQSGTTMDDYKDDDDKGGSDGIQAEEWYFGKITRRESERLLLNAENPRGTFLVREGQSQPDYVLSVSDFDNAKGLNVKHYIIRKLDSGGFYITSRTQFNSLQQLVAYYSKHADGLCHRLTTVCPSR
B2: Ptn11_N^G-αA2-R sSrc (protein)
chain: MKIEEHHHHHHSSGKLGLNDIFEAQKIEWHESSGEDLYFQSGTTMDDYKDDDDKGGSGSMTSRRWFHPNITRVEAENLLLTRGVDGSFLARPSETVKGAFALSVRRNGAVTHILIQNTGDYYDLYGGEKFATLAELVQYYMEHHGQLKEKNGDVIELKYPLNCADSR
B3: Ptn11_C^G-αA2-R sSrc (protein)
chain: MKIEEHHHHHHSSGKLGLNDIFEAQKIEWHESSGEDLYFQSGTTMDDYKDDDDKGSLNCADPTSERWFHGHLSRKEAEKLLTEKGKHGSFLVRESETVKGAFALSVRTGDDKGESNDGKSKVTHVLIRCQELKYDVGGGERFDSLTDLVEHYKKNPMVETLGTVLQLKQPLNTTRINAADSR
B4: Fes^sSrc, Fes SH2 domain with the sSrc superbinder motif grafted (designed binder)
chain: MKIEEHHHHHHSSGKLGLNDIFEAQKIEWHESSGEDLYFQSGTTMDDYKDDDDKGGSEVQKPLHEQLWYHGAIPRAEVAELLVHSGDFLVRESETVKGAYALSVLWDGLPRHFLIQSLDNLYRLEGEGFPSIPLLIDHLLSTQQPLTKKSGVVLHRAVPSR
B5: sFes^1 (SuperFes), superbinder Fes SH2 domain variant (designed binder)
chain: MKIEEHHHHHHSSGKLGLNDIFEAQKIEWHESSGEDLYFQSGTTMDDYKDDDDKGGSEVQKPLHEQLWYHGAIPRAEVAELLVHSGDFLVREGQSQPDYVLSVLWDGLPRHFIIQSLDNLYRLEGEGFPSIPLLIDHLLSTQQPLTKKSGVVLHRAVPSR
B6: Ptn11_N^G-αA2-R sFes (protein)
chain: MKIEEHHHHHHSSGKLGLNDIFEAQKIEWHESSGEDLYFQSGTTMDDYKDDDDKGGSGSMTSRRWFHPNITRVEAENLLLTRGVDGSFLARPGQSQPDFVLSVRRNGAVTHIIIQNTGDYYDLYGGEKFATLAELVQYYMEHHGQLKEKNGDVIELKYPLNCADSR
B7: Fes SH2 domain, wild type (Fes^wt) (other)
chain: WYHGAIPRAEVAELLVHSGDFLVRESQGKQEYVLSVLWDGLPRHFIIQSLDNLYRLEGEGFPSIPLLIDHLLSTQQPLTKKSGVVLHRAV
B8: Ptn6_C^G-αA2-R sFes (protein)
chain: MKIEEHHHHHHSSGKLGLNDIFEAQKIEWHESSGEDLYFQSGTTMDDYKDDDDKGSLNCSDPTSERWYHGHMSRGQAETLLQAKGEPWTFLVREGQSQPDFVLSVLSDQPKAGPGSPLRVTHIIVMCEGGRYTVGGLETFDSLTDLVEHFKKTGIEEASGAFVYLRQPYYATRVNAADSR

Key:
[1] = molecular target: T1, pMT peptide EEPQ{pTyr}EEIPIY; experiment: competition binding
T1 peptide: {Biotin-Ahx-Ahx}-EEPQ[pY]EEIPIY

[2] = molecular target: T1, pMT peptide EEPQ{pTyr}EEIPIY; experiment: competition binding
[3] = molecular target: T2, Phosphopeptide KQVE{pTyr}LDLDLD; experiment: competition binding
T2 peptide: {Biotin-Ahx-Ahx}-KQVE[pY]LDLDLD

[4] = molecular target: T3, Phosphopeptide PPPT{pTyr}TEVDP; experiment: competition
T3 peptide: {Biotin-Ahx-Ahx}-PPPT[pY]TEVDP

[5] = molecular target: T4, pTyr-containing peptide (pEZ) derived from Ezrin, PPV{pTyr}EPVS (also: N-terminal fluorescein (FP) or biotin via two aminocaproic acids (ELISA)); experiment: competition binding
T4 peptide: PPV[pY]EPVS

[6] = molecular target: T4, pTyr-containing peptide (pEZ) derived …; experiment: competition binding
[7] = molecular target: T5, Phosphopeptide QGVI{pTyr}SDLNLP; experiment: competition binding
T5 peptide: {Biotin-Ahx-Ahx}-QGVI[pY]SDLNLP

Binder | IC50 [5] | IC50 [6] | other results
B1 | – | – | IC50 [1]: 21 nM; IC50 [2]: 4.3 nM
B2 | – | – | IC50 [3]: 17 nM
B3 | – | – | IC50 [4]: 1900 nM
B4 | 70 nM | 42 nM | –
B5 | 4 nM | 1.6 nM | –
B6 | – | – | IC50 [3]: 74 nM
B7 | 6000 nM | 4600 nM | –
B8 | – | – | IC50 [7]: 900 nM
